Residue numbers refer to the chain shown, from its start. In names and notes the source's numbering stands.
B1: RebH (Lentzea aerocolonigenes; K145M/M71V/S2P) (protein)
chain: MPGKIDKILIVGGGTAGWMAASYLGKALQGTADITLLQAPDIPTLGVGEATIPNLQTAFFDFLGIPEDEWVRECNASYKVAIKFINWRTAGEGTSEARELDGGPDHFYHSFGLLKYHEQIPLSHYWFDRSYRGKTVEPFDYACYMEPVILDANRSPRRLDGSKVTNYAWHFDAHLVADFLRRFATEKLGVRHVEDRVEHVQRDANGNIESVRTATGRVFDADLFVDCSGFRGLLINKAMEEPFLDMSDHLLNDSAVATQVPHDDDANGVEPFTSAIAMKSGWTWKIPMLGRFGTGYVYSSRFATEDEAVREFCEMWHLDPETQPLNRIRFRVGRNRRAWVGNCVSIGTSSCFVEPLESTGIYFVYAALYQLVKHFPDKSLNPVLTARFNREIETMFDDTRDFIQAHFYFSPRTDTPFWRANKELRLADGMQEKIDMYRAGMAINAPASDDAQLYYGNFEEEFRNFWNNSNYYCVLAGLGLVPDAPSPRLAHMPQATESVDEVFGAVKDRQRNLLETLPSLHEFLRQQHGR
B2: RebH (Lentzea aerocolonigenes; K145M/M71V/N467T/S2P) (protein)
chain: B1 chain with N467T

Substrate: c1ccc2c3c([nH]c2c1)CNCC3
Assay: steady-state kinetics of chlorination
Assay type: biochemical, Lentzea aerocolonigenes
Details: cofactor regeneration as in Scheme 2

Row | Protein | Km (variant 1-PVM, 5 mol% enzyme) | kcat (variant 1-PVM, 5 mol% enzyme) | kcat/Km (variant 1-PVM, 5 mol% enzyme) | Km (variant 2-T, 3 mol% enzyme) | kcat (variant 2-T, 3 mol% enzyme) | kcat/Km (variant 2-T, 3 mol% enzyme)
1 | B1 | 215 µM | 0.000667 s⁻¹ | 3.1 M⁻¹ s⁻¹ |  |  | 
2 | B2 |  |  |  | 236 µM | 0.000933 s⁻¹ | 3.95 M⁻¹ s⁻¹

— publication PMC4506780
